B1: 1033B2 scFv (scFv, V domains shown)
VH: QVQLQQSGAEVKKPGSSVKLSCKASGGTFSSFGISWVRQAPGQGLEWLGRIIPFLGPADYAQKFQGRVTITADESRSTAYMELSSLTSEDTAVYFCARSFYDILTGYYEGVFYYYMDVWGQGTMVTVSS
VL: QSVLIQPASVSGSPGQSITISCTGTSSDVGGYNYVSWYQQHPGKAPKLMIYEGSKRPSGVSNRFSGSKSGNTASLTISGLQAEDEADYYCSSYTTRSTRVFGGGTKLTVL
notes: purified scFv
B2: 1057F11 scFv (scFv, V domains shown)
VH: EVQLVETGGGVVQPGTSLRLSCAASGFTFSSHGMHWVRQAPGQGLEWVAHAWSDGSNKYYADSLKGRFTISRDNSRNTLYLQMNSLRAEDTAVYYCARDGQQLANYAMDVWGRGTTVTVSS
VL: DIQMTQSPSFLSASVGDRVTITCRASQGINSYLAWYQQIPGKAPNLLIYAASTLQSGVPSRFSGSGSGTEFTLTISSLQPEDFATYYCQQLNTYPFTFGPGTKVEIK
notes: purified scFv

Target: T1, rat nerve growth factor (beta-NGF) (rat, UniProt P25427 122-241)
T1 construct: mature; also called rat NGF; recombinant rat β-NGF
Assay: purified scFv, inhibition of NGF binding to coated TrkA fusion protein (DELFIA)
Method: Crude scFv samples were prepared from periplasmic lysates of E. coli TG-1 bacteria transfected with selected phage for evaluation in the binding assay. […] Assay plates were washed with PBS/Tween 20, blocked for 2 h using 1% bovine serum albumin (BSA) in PBS, and washed again. […] Samples were transferred in a volume of 100 μl to assay plates and incubated for 60 min at room temperature. […] Briefly, plates were washed and 100 μl streptavidin Eu³⁺ added to each well, diluted 1/1000 in DELFIA assay buffer. Plates were incubated for a further 60 min at room temperature and washed with DELFIA wash buffer, followed by addition of 100 μl DELFIA enhancement solution to each well. Plates were read using a Wallac Victor fluorimetric plate reader (excitation wavelength 314 nm; emission wavelength 615 nm).
Purified scFv preparations were prepared as described in Example 3 of WO01/66754. Protein concentrations of purified scFv preparations were determined using the BCA method (Pierce).

Row | Binder | binding result
1 | B1 | binds
2 | B2 | binds

— US20080107658A1 (AstraZeneca / MedImmune, published 2008)
